Values quoted from earlier work, collected in publication PMC12590814.
Read-outs that look alike come from different tables or passages of the source.

Legend:
[1] = target: calmodulin (Homo sapiens) (UniProt P0DP23)
[2] = target: calmodulin (Homo sapiens) (UniProt P0DP23); remark: listed apart in the source

Substance | Kd [1] [nM] | Kd [2] [nM]
PMCA2 (from UniProt Q01814) | 7.5 | 
PMCA3 (from UniProt Q16720) |  | 7.5
